In patent US10413607B2, “Antibody specifically binding to ErbB3 and use thereof” (ISU ABXIS CO., LTD., priority 2015, dated 2019):

B1: 442S9: modified anti-ErbB3 antibody from lead antibody 442P (CDR mutagenesis) (antibody, V domains shown)
VH: EVQLLESGGGLVQPGGSLRLSCAASGFTFSDYDMSWVRQAPGKGLEWVSSIYPDSGSTYYADSVQGRFTISRDNSKNTLYLQMNSLRAEDTAVYYCAKDRHMWPEGPFDYWGQGTLVTVSS
VL: QSVLTQPPSASGTPGQRVTISCSGSSSNIGSNSGSWYQQLPGTAPKLLIYADNHRPSGVPDRFSGSKSGTSASLAISGLRSEDEADYYCAAWDSSLSGYVFGGGTKLTVLG
modifications: Heavy chain variable region of antibody 442S9; Light chain variable region of antibody 442S9
B2: 472S1: modified anti-ErbB3 antibody from lead antibody 472P (CDR mutagenesis) (antibody, V domains shown)
VH: EVQLLESGGGLVQPGGSLRLSCAASGFTFSWYDMTWVRQAPGKGLEWVSGISYDGGNTYYADSVKGRFTISRDNSKNTLYLQMNSLRAEDTAVYYCARDPSWCLQDLCYYADGMDVWGQGTLVTVSS
VL: QSVLTQPPSASGTPGQRVTISCSGSSSNIGSNSVSWYQQLPGTAPKLLIYADSNRPSGVPDRFSGSKSGTSASLAISGLRSEDEADYYCGSWDYSLSGYVFGGGTKLTVLG
modifications: Heavy chain variable region of antibody 472S1; Light chain variable region of antibody 472S1
B3: 442M4: modified anti-ErbB3 antibody from lead antibody 442P (CDR mutagenesis) (antibody, V domains shown)
VH: EVQLLESGGGLVQPGGSLRLSCAASGFTFSDYDMSWVRQAPGKGLEWVSTIDLDSGSIYYADSVQGRFTISRDNSKNTLYLQMNSLRAEDTAVYYCAKDLHMGPEGPFDYWGQGTLVTVSS
VL: QSVLTQPPSASGTPGQRVTISCSGSSSNIGSNSVSWYQQLPGTAPKLLIYSDNHRPSGVPDRFSGSKSGTSASLAISGLRSEDEADYYCVGWDSSLYGHVFGGGTKLTVLG
modifications: Heavy chain variable region of antibody 442M4; Light chain variable region of antibody 442M4
B4: 472S4: modified anti-ErbB3 antibody from lead antibody 472P (CDR mutagenesis) (antibody, V domains shown)
VH: EVQLLESGGGLVQPGGSLRLSCAASGFTFSWYDIAWVRQAPGKGLEWVSGISYDGGNTYYADSVKGRFTISRDNSKNTLYLQMNSLRAEDTAVYYCARDPSWCLQDLCYYADGMDVWGQGTLVTVSS
VL: QSVLTQPPSASGTPGQRVTISCSGSSSNIGSNSVSWYQQLPGTAPKLLIYADSNRPSGVPDRFSGSKSGTSASLAISGLRSEDEADYYCGSWDYSLSGYVFGGGTKLTVLG
modifications: Heavy chain variable region of antibody 472S4; Light chain variable region of antibody 472S4
B5: 472S2: modified anti-ErbB3 antibody from lead antibody 472P (CDR mutagenesis) (antibody, V domains shown)
VH: EVQLLESGGGLVQPGGSLRLSCAASGFTFSWYDLAWVRQAPGKGLEWVSGISYDGGNTYYADSVKGRFTISRDNSKNTLYLQMNSLRAEDTAVYYCARDPSWCLQDLCYYADGMDVWGQGTLVTVSS
VL: QSVLTQPPSASGTPGQRVTISCSGSSSNIGSNSVSWYQQLPGTAPKLLIYADSNRPSGVPDRFSGSKSGTSASLAISGLRSEDEADYYCGSWDYSLSGYVFGGGTKLTVLG
modifications: Heavy chain variable region of antibody 472S2; Light chain variable region of antibody 472S2
B6: 442M6: modified anti-ErbB3 antibody from lead antibody 442P (CDR mutagenesis) (antibody, V domains shown)
VH: EVQLLESGGGLVQPGGSLRLSCAASGFTFSDYDMSWVRQAPGKGLEWVSSIEPDSGSTDYADSVQGRFTISRDNSKNTLYLQMNSLRAEDTAVYYCAKDRHMWPEGPFDYWGQGTLVTVSS
VL: QSVLTQPPSASGTPGQRVTISCSGSSSNIGSNSGSWYQQLPGTAPKLLIYADNWRPSGVPDRFSGSKSGTSASLAISGLRSEDEADYYCAAWDSSLSGYVFGGGTKLTVLG
modifications: Heavy chain variable region of antibody 442M6; Light chain variable region of antibody 442M6
B7: 442M3: modified anti-ErbB3 antibody from lead antibody 442P (CDR mutagenesis) (antibody, V domains shown)
VH: EVQLLESGGGLVQPGGSLRLSCAASGFTFSDYDMSWVRQAPGKGLEWVSSIYPDSGSTYYADSVQGRFTISRDNSKNTLYLQMNSLRAEDTAVYYCAKDRHMWPEGPFDYWGQGTLVTVSS
VL: QSVLTQPPSASGTPGQRVTISCSGSSSNIGSNSGSWYQQLPGTAPKLLIYADNWRPSGVPDRFSGSKSGTSASLAISGLRSEDEADYYCAAWDSSLSGYVFGGGTKLTVLG
modifications: Heavy chain variable region of antibody 442M3; Light chain variable region of antibody 442M3
B8: 442M11: modified anti-ErbB3 antibody from lead antibody 442P (CDR mutagenesis) (antibody, V domains shown)
VH: EVQLLESGGGLVQPGGSLRLSCAASGFTFSDYDMSWVRQAPGKGLEWVSTIEPDYGSTLYADSVQGRFTISRDNSKNTLYLQMNSLRAEDTAVYYCAKDLHMGPEGPFDYWGQGTLVTVSS
VL: QSVLTQPPSASGTPGQRVTISCSGSSSNIGSNSVSWYQQLPGTAPKLLIYSDNHRPSGVPDRFSGSKSGTSASLAISGLRSEDEADYYCHAWDSSLSGDFFGGGTKLTVLG
modifications: Heavy chain variable region of antibody 442M11; Light chain variable region of antibody 442M11
B9: 472S3: modified anti-ErbB3 antibody from lead antibody 472P (CDR mutagenesis) (antibody, V domains shown)
VH: EVQLLESGGGLVQPGGSLRLSCAASGFTFSWYDMSWVRQAPGKGLEWVSGISYDGGNTYYADSVKGRFTISRDNSKNTLYLQMNSLRAEDTAVYYCARDPSWCLQDLCYYADGMDVWGQGTLVTVSS
VL: QSVLTQPPSASGTPGQRVTISCSGSSSNIGSNSVSWYQQLPGTAPKLLIYADSNRPSGVPDRFSGSKSGTSASLAISGLRSEDEADYYCGSWDYSLSGYVFGGGTKLTVLG
modifications: Heavy chain variable region of antibody 472S3; Light chain variable region of antibody 472S3
B10: 442M5: modified anti-ErbB3 antibody from lead antibody 442P (CDR mutagenesis) (antibody, V domains shown)
VH: EVQLLESGGGLVQPGGSLRLSCAASGFTFSDYDMSWVRQAPGKGLEWVSTIDLDSGSIYYADSVQGRFTISRDNSKNTLYLQMNSLRAEDTAVYYCAKDLHMGPEGPFDYWGQGTLVTVSS
VL: QSVLTQPPSASGTPGQRVTISCSGSSSNIGSNSVSWYQQLPGTAPKLLIYSDNHRPSGVPDRFSGSKSGTSASLAISGLRSEDEADYYCHAWDSSLWGDVFGGGTKLTVLG
modifications: Heavy chain variable region of antibody 442M5; Light chain variable region of antibody 442M5
B11: 442M8: modified anti-ErbB3 antibody from lead antibody 442P (CDR mutagenesis) (antibody, V domains shown)
VH: EVQLLESGGGLVQPGGSLRLSCAASGFTFSDYDMSWVRQAPGKGLEWVSSIYPDSGSTYYADSVQGRFTISRDNSKNTLYLQMNSLRAEDTAVYYCAKDLHMGPEGPFDYWGQGTLVTVSS
VL: QSVLTQPPSASGTPGQRVTISCSGSSSNIGSNSVSWYQQLPGTAPKLLIYSDNHRPSGVPDRFSGSKSGTSASLAISGLRSEDEADYYCHAWDSSLYVDVFGGGTKLTVLG
modifications: Heavy chain variable region of antibody 442M8; Light chain variable region of antibody 442M8
B12: 442M10: modified anti-ErbB3 antibody from lead antibody 442P (CDR mutagenesis) (antibody, V domains shown)
VH: EVQLLESGGGLVQPGGSLRLSCAASGFTFSDYDMSWVRQAPGKGLEWVSSIYPDSGSTDYADSVQGRFTISRDNSKNTLYLQMNSLRAEDTAVYYCAKDLHMWPEGPFDYWGQGTLVTVSS
VL: QSVLTQPPSASGTPGQRVTISCSGSSSNIGSNSVSWYQQLPGTAPKLLIYADNFRPSGVPDRFSGSKSGTSASLAISGLRSEDEADYYCAAWDSSLSGYVFGGGTKLTVLG
modifications: Heavy chain variable region of antibody 442M10; Light chain variable region of antibody 442M10

Molecular target: T1, recombinant human ErbB3 protein (Homo sapiens, UniProt P21860)
T1 construct: purchased R&D systems
Experiment: Binding affinity of anti-ErbB3 antibody to human ErbB3 protein (Octet QK384)
Conditions: immobilized human ErbB3; for ka (association constant): binding phase about 900 seconds; for kd (dissociation constant): dissociation phase about 1200 seconds
Experimental: In particular, the binding affinities of the anti-ErbB3 antibodies to the recombinant human ErbB3 protein (R&D systems) and the antigen-antibody interactive dynamics were measured using an Octet® QK384 system (Pall Life Sciences). After activation of carboxyl groups in 20 mM of 1-ethyl-3-(3-dimethylaminopropyl)carbodiimide hydrochloride (EDC) and 40 mM of N-hydroxysulfosuccinimide (sulfo-NHS) solution on an AR2G sensor (ForteBio), 10 μg/mL of human ErbB3 protein solution diluted with 10 mM of sodium acetate (pH 4.0) (ForteBio) was added to immobilize human ErbB3 protein onto the AR2G sensor. The AR2G sensor to which the human ErbB3 protein was immobilized was treated with 1 M of ethanolamine (ForteBio) to inactivate the remaining unreacted carboxyl groups.

Molecule	ka (association constant)	kd (dissociation constant)
B1	821000 M⁻¹ s⁻¹	5.87e-05 s⁻¹
B2	649000 M⁻¹ s⁻¹	3.33e-07 s⁻¹
B3	573000 M⁻¹ s⁻¹	<1e-07 s⁻¹
B4	1.15e+06 M⁻¹ s⁻¹	1.09e-05 s⁻¹
B5	1.07e+06 M⁻¹ s⁻¹	<1e-07 s⁻¹
B6	969000 M⁻¹ s⁻¹	1.95e-05 s⁻¹
B7	771000 M⁻¹ s⁻¹	2.62e-06 s⁻¹
B8	1.49e+06 M⁻¹ s⁻¹	8.09e-06 s⁻¹
B9	522000 M⁻¹ s⁻¹	1.43e-07 s⁻¹
B10	665000 M⁻¹ s⁻¹	<1e-07 s⁻¹
B11	870000 M⁻¹ s⁻¹	2.23e-06 s⁻¹
B12	471000 M⁻¹ s⁻¹	<1e-07 s⁻¹
